From US20250340626A1 (INTERVET, published 2025) come the findings set out here.

The labels stand for the following.
T1: canine NGF receptor TrkA ECD-canine Fc fusion protein (canine)
T1 construct: also called cTrkA-ECD-IgG-B Fc fusion protein; canine TrkA-IgGBFc fusion protein
T1 chain: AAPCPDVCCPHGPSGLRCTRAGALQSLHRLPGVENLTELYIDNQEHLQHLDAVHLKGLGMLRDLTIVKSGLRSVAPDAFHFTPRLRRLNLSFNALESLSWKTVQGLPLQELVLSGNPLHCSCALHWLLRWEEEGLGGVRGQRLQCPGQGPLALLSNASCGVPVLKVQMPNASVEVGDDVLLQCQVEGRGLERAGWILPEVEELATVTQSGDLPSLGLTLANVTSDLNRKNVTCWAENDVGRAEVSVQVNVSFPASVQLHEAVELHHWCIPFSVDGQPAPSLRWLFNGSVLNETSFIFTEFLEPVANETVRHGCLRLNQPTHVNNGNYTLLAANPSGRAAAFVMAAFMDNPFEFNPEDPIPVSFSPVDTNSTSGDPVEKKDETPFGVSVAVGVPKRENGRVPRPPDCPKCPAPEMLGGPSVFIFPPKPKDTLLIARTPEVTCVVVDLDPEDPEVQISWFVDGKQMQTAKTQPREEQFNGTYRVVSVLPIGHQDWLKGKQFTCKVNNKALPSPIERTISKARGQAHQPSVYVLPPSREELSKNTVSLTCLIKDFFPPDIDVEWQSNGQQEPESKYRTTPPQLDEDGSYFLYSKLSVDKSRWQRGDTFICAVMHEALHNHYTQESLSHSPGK

B1: human-canine chimeric Fasinumab (antibody, V domains shown)
VH: QVQLVQSGAEVKKPGASVKVSCKVSGFTLTELSIHWVRQAPGKGLEWMGGFDPEDGETIYAQKFQGRVTMTEDTSTDTAYMELTSLRSEDTAVYYCSTIGVVTNFDNWGQGTLVTVSS
VL: DIQMTQSPSSLSASAGDRVTITCRASQAIRNDLGWYQQKPGKAPKRLIYAAFNLQSGVPSRFSGSGSGTEFTLTISSLQPEDLASYYCQQYNRYPWTFGQGTKVEIKR
notes: Human VH/VL of fasinumab fused to canine IgG-B constant regions and canine kappa constant region; also called Fas Chimeric; Fas Chim
B2: canine NGF (ligand)
chain: SSSHPVFHRGEFSVCDSVSVWVGDKTTATDIKGKEVMVLGEVNINNSVFKQYFFETKCRDPTPVDSGCRGIDSKHWNSYCTTTHTFVKALTMDGKQAAWRFIRIDTACVCVLSRKAGRRA
notes: also called canine Nerve Growth Factor; cNGF
B3: human-canine chimeric Fulranumab (antibody, V domains shown)
VH: EVQLVESGGGLVQPGGSLRLSCAASGFTLRSYSMNWVRQAPGKGLEWVSYISRSSHTIFYADSVKGRFTISRDNAKNSLYLQMDSLRDEDTAMYYCARVYSSGWHVSDYFDYWGQGILVTVSS
VL: AIQLTQSPSSLSASVGDRVTITCRASQGISSALAWYQQKPGKAPKLLIYDASSLESGVPSRFSGSGSGTDFTLTISSLQPEDFATYYCQQFNSYPLTFGGGTKVEIKR
notes: Human VH/VL of fulranumab fused to canine IgG-B constant regions and canine kappa constant region; expressed in HEK293, Protein A purified; also called Ful Chimeric; Ful Chim

For the assay “canine NGF”, the target named is B2. The assay is described as follows: ELISA, canine NGF coated, anti-dog IgG Fc-HRP detection. The procedure:
The binding of chimeric and caninized antibodies to canine NGF was determined by ELISA as follows: [0132] 1. Coat 100 ng/well canine NGF in an immunoplate and incubate the plate at 4° C. overnight. [0133] 2. Wash the plate 3 times by PBS with 0.05% Tween 20 (PBST). [0134] 3. Block the plate by 0.5% BSA in PBS for 45-60 min at room temperature. [0135] 4. Wash the plate 3 times by PBST. [0136] 5. Make 3-fold dilution the antibodies in each column or row of dilution plate. [0137] 6. Transfer the diluted antibodies into each column or row of the immunoplate, and incubate the plate for 45-60 min at room temperature. [0138] 7. Wash the plate 3 times by PBST. [0139] 8. Add 1:2000 diluted horseradish peroxidase labeled anti-dog IgG Fc into each well of the plate and incubate the plate for 45-60 min at room temperature. [0140] 9. Wash the plate 3 times by PBST. [0141] 10. Add TMB Substrate into each well of the plate and incubate the plate for 10 to 15 min at room temperature for color development. [0142] 11. Add 100 μL of 1.5 M phosphoric acid into each well to stop the reaction. [0143] 12. Read the plate at 450 nm with 540 nm reference wavelength.

In assay [1] the target is T1, canine NGF receptor TrkA ECD-canine Fc …. The assay is described as follows: ELISA, canine NGF on canine TrkA receptor.
For the next assay, the target named is human TrkA on TF-1 cells (human, UniProt P04629 33-796). Put plainly: cell-based or functional assay.
human TrkA on TF-1 cells, sequence (P04629 33-796): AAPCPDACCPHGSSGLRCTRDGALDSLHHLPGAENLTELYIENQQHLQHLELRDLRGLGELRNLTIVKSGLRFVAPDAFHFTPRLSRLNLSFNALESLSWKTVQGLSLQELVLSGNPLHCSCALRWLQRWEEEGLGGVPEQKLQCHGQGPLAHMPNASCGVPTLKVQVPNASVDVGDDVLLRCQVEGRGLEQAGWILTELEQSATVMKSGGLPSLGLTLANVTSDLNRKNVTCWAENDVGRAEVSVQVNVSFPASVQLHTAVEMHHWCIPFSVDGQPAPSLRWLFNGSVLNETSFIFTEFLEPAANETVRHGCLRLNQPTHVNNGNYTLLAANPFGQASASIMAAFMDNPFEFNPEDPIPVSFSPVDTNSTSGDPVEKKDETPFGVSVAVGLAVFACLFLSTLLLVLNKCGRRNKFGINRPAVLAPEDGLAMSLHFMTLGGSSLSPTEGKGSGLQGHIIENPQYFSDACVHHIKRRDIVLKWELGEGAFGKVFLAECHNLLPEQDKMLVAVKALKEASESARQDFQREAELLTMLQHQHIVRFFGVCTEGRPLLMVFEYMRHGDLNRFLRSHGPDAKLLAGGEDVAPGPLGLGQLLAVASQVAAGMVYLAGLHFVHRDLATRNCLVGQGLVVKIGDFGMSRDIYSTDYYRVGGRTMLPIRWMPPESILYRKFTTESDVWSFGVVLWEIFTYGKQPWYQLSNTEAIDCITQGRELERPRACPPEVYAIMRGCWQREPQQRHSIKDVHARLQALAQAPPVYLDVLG

One may read the EC50 as the midpoint of the concentration-response curve. Low readings indicate greater potency, high ones weaker potency.

For the molecule B1, the response with canine NGF was half-maximal at 122 nM (EC50).

The molecule B2 registered an EC50 in assay [1] of 54 nM. Besides, in the assay with human TrkA on TF-1 cells, the “TF-1 cell proliferation (CellTiter-Glo luminescence) EC50” value came to 28 nM.

The molecule B3 came in with an EC50 in the assay with canine NGF of 0.022 nM.
